These results are taken from paper PMC3636998.

Experiment [1] addresses GST fusion protein containing the C-terminal domain (CTD; residues 761-1042) of DGLα (UniProt Q9Y4D2). In words: pull-down.
A further experiment deals with DGLα (UniProt Q9Y4D2). The experiment in a line: anti-V5 co-immunoprecipitation, CaMKIIα blot. As to conditions: reference: wild type CaMKIIα; sites T286.
For experiment [2], the target named is DGLα-V5 (full-length diacylglycerol lipase-α with a C-terminal V5-epitope tag) (UniProt Q9Y4D2). In words: co-IP.
The target in experiment [3] is DGLα C-terminal domain, 761-1042 (UniProt Q9Y4D2). In words: GST cosedimentation, CaMKII blot. As to conditions: reference: non-phosphorylated CaMKIIα; sites T286.

“purified Thr286-autophosphorylated CaMKIIα (from UniProt P11798 1-478) (enzyme)” yielded a CaMKII detected, normalized to the input in experiment [1] of 0.37. As to CaMKIIα (from UniProt P11798) T286A, the percent of reference result with DGLα is reported as “weaker; reference 100±5%”.

The substance “WT CaMKIIα expressed in HEK293T cells (from UniProt P11798 1-478) (enzyme)” had an interaction with DGLα-V5, percent of WT in experiment [2] of 100%.

Regarding “CaMKIIα (from UniProt P11798) Thr286-autophosphorylated CaMKIIα”, the “other: bound CaMKII normalised to input aliquot” value in experiment [3] was “gained; reference 0.11±0.03”.
